{"source": "the nanobody polyreactivity screen of Harvey et al. (2022)"}
{"assay": "yeast display, Sf9 membrane polyspecificity reagent, FACS + sequencing; frameworks hold sequencing errors", "outline": "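Galactose-induced (36–48 hours) yeast carrying a synthetic nanobody display library were exposed to 10% biotinylated, detergent-solubilized Sf9 membrane reagent at 4 °C for 1 hour. FACS followed streptavidin microbead enrichment, using low and high (top ~1%) gates for expression (anti-HA) and reagent binding (streptavidin). Colony PCR, MiSeq 2 × 250 sequencing and CDR-length filtering followed. Labels for polyreactivity reflect the gate of origin.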"}
{"sequence": "QVQLEESGGGLVQAGGSLRLSCVASGSTFRFYAMGWYRPAPGNERQLVAAITWRGTSTYYADSVKGRFTISRDNAKNSVYLQMNSLKPEDTAVYYCNAAGYWPATGDYWGQGTQVTVSS", "polyreactivity (PSR sort gate)": "high polyreactivity"}
{"sequence": "QVQLEESGGGLVQAGGSLRLSFAAYGRTFGTNPMGWYRQATGKERELVAAITKSSSRTYYADSVKGRFTISRDNAKNTVYLQMNSLKPEDTAVYYCAARYYAVGGYDYWGQGTQVTVSS", "polyreactivity (PSR sort gate)": "high polyreactivity"}
{"sequence": "QVQLEESGGGLVQAGGSLRLTCAASGFTFGYYTMGWYRQAPGQERELVAAISSGGSTNYADSVKGRFTISRDNAKNTVYLEMNSLKPEDTAVYYCTATQIGPYYLPFDSWGQGTQVTVSS", "polyreactivity (PSR sort gate)": "high polyreactivity"}
{"sequence": "QVQLEESGGGLVQAGGSLRLTCAASGFTINEYAMGRYIQAPGKERELVAAISRGGTTYYADSVKGRFTISRDNAKNTVYLQMNSLKPEDTAVYYCAAPYFWNTEMDYWGQGTQVSVSS", "polyreactivity (PSR sort gate)": "low polyreactivity"}
{"sequence": "QVQLEESGGGLVQAGGSLRLTCAASGLIFHDYAMGWYRQATGTEMELVAAISWSDGTTYYADSVKGRFTISRDNAKITVYLQMNSLKPEDTAVYYCAAEEVSGWEYDFWGQGTQVTVSS", "polyreactivity (PSR sort gate)": "high polyreactivity"}
{"sequence": "QVQLEESGGGLVQAGGSLRLTCAASGRIFYRNSMGWYRQATGKERELVATISGRGGSTYYADSVKGRFTISRDNAKNTDYLQMNSLKPEDTAVYYCAVRNHGSVRWTGESWGQGTQVTVSS", "polyreactivity (PSR sort gate)": "high polyreactivity"}
{"sequence": "QVQLEESGGGLVQAVGSLRLSCAASGFIFKRNAMGWYRQAPGKERELVAAITSRGGHTYYADSVKGRFTISRDNAKNTVYLQMNSLKAEDTAVYYCAATYASHDDYWGQGTQVTVSS", "polyreactivity (PSR sort gate)": "high polyreactivity"}
{"sequence": "QVQLEESGGGVVQAGGSLRLSCAASGGTFSRYAMGWYRQATGKERELVAAITRSGASTFYADSVKGRFTISRDNAKNTVYLQMNSLKPEDTAVYYCAADTYVYNEYDYWGQGTQVTVSS", "polyreactivity (PSR sort gate)": "high polyreactivity"}
{"sequence": "QVQLEESGGRLVQAGCSLRLSCAASGRTFDYYAMGWYRQAPGKEWELVAAITASGGSTFYADSVKGRFTISRDNAKNTVYLQMYSMKPEDTAVYYCAGRYTWRYFIKYGYWGQGTQVTVSS", "polyreactivity (PSR sort gate)": "high polyreactivity"}
{"sequence": "QVQLEESGGRLVQAGCSLRLSCAASGYIFRKYAMGWYRQAPGKEWELVADISSSGGSTYYADSVKGRFTISRDNAKNTVYLQMNSLKPEDTAGYYCAKDRKSSRRINRMDYWGQGTQVTVSS", "polyreactivity (PSR sort gate)": "high polyreactivity"}
{"sequence": "QVQLEESGGRLVQAGGRLRLNCAASGLTFNTNSMGWYRKAPGKERELVAAISRGGGSTYYADSVKGRFTISRDNAKNSVYLQMNSLKPEDTAVYYCNAEKSASYLLYDYWGQGTLVTVSS", "polyreactivity (PSR sort gate)": "high polyreactivity"}
{"sequence": "QVQLEESGGRLVQAGGSLRLICAASGSTFLANAMGWYRQAPGKERELVATISSGGSTNYADSVKGRFTISRDNAKNTVYLQMNSLKPEDTAVYYCAAEYWYAWQEYGYWGQGTQVTVSS", "polyreactivity (PSR sort gate)": "low polyreactivity"}
{"sequence": "QVQLEESGGRLVQAGGSLRLSCAASGRTFYPYAMGWYRQAPGKERELVAAISYRGGSTYYADSVKGRFTISRDNAKNTVYLQMNSLKPEDTAVYYCAKRGYASGSKWDYGYWGQGTQVTVSS", "polyreactivity (PSR sort gate)": "high polyreactivity"}
{"sequence": "QVQLEESGGSLVQAGGSLRLSCAASGRTFYHYAMGWYRPAPGKERQLVAAISSGGSTKYADSVKGRFTISRDNAKNTVYLQMNSLKPEDTAVYYCAARTYQKGGRYYYWGQGTHVTVSS", "polyreactivity (PSR sort gate)": "high polyreactivity"}
{"sequence": "QVQLEESGLALVQAGGSLRLSCADSGRIFRKKAMGWYRQAPGKERELVAAISSSGSTYYADSVKGRFKISRDNAKNTVYLQMNSLKPVDTAVYYCAARYQYGNRRGRDYWGQGTQVTVSS", "polyreactivity (PSR sort gate)": "high polyreactivity"}
{"sequence": "QVQLEESGRGLVQAGGSLRLSCAASGSTLSTYSMGWYRQAPGKERELVAAITWSDDSTYYADSVKGRFTISRDNAKNTFYLQMNSLKPEDTAVYYCAAEYISWYFGYDYWGQGTQVTVSS", "polyreactivity (PSR sort gate)": "high polyreactivity"}
{"sequence": "QVQLEESGVGLVQAGGSLRLSCAASGSIIHYNAMGWYRKAPGKERELVASISSGGRTYYADSVKGRFTISRDNAKNTVYLQMNSLNQEDTAVYYCAAEYYQTTYVWWTYDYSWGLGTQVTVSS", "polyreactivity (PSR sort gate)": "low polyreactivity"}
{"sequence": "QVQLEESRGGLVQAGGSLRLSCAASGSILTGYAMGLSRQAPGKERELVAAINFSGDNTYYADSVKGRFTISRDNAKNSVYLQMNSLKPEDTAVYYCNARNAVEDDYWGQGTQVTVSS", "polyreactivity (PSR sort gate)": "low polyreactivity"}
{"sequence": "QVQLEESVGGLDQAGGSLRLSCAASGHIIVYYPLGWYRQAPGKERELVAAITSGGSTNYADSGKGRFTISRDNAKNTVYLQMNSLKPADSAVYYCAARQWFSHRRWGGSRYDYWGQGTQVTVSS", "polyreactivity (PSR sort gate)": "low polyreactivity"}
{"sequence": "QVQLEESVGGLVQAGCSLRLSCAASGGIFWVYAMGWYRQAPGKERELVAAISNSDTSTSYADSVKGRFTISRDNAKNTVYLQMNSLKPEDTAVYYCNADSPSLSGDYWGQGTQVTVSS", "polyreactivity (PSR sort gate)": "low polyreactivity"}
{"sequence": "QVQLEESVGGLVQAGGSLRLSCAASGLTFRAYAMGWYRQAPGKERELVAAISSGGSTSYADSVKGRFTISRDNANITVYLQMNRLKPEDSAVYYCAADRARRGIRDYYWGQGTQVTVSS", "polyreactivity (PSR sort gate)": "high polyreactivity"}
{"sequence": "QVQLEESVGGLVQAGGSLRLTCAASGSTLSYYSMGWYRQAPGKERELVARITRSGGRTYYADSVKGRFTISRDNEKNTVYLQINSLKPEDTGVYYCNKVAYYSRRMDYWGQGTLVTVSS", "polyreactivity (PSR sort gate)": "high polyreactivity"}
{"sequence": "QVQLEESVGGLVQAGRSLRLSCASSGTTFYYYALGWYRQAPGKERELVATIDSGTSTYYADSVKGRFTISRDNAKNTVYLQMNSLKPEDTAVYYCAAKTWSWSYGYNYWGQGTQVTVSS", "polyreactivity (PSR sort gate)": "low polyreactivity"}
{"sequence": "QVQLEESWGGLVQAGGSLRLICAASGSIFSYYAMGWYRQAPGKERELVAVITSGGSTYYADSVKGRFTISRDNAKNTVYLQMNSLKPEDTAVYYCAVKYPELRTWGYYYWGQGTQVTVSS", "polyreactivity (PSR sort gate)": "high polyreactivity"}
{"sequence": "QVQLEESWGGLVQAGGSLRLSCAASGSIYWEYAMGWYTPAPGKEREFVATISARGGRTYYADSVKGRFTISRDNAKNTVYLQMNSLKPEDTAVYYCANVGVFHLRDNYRFDFWGQGTQVTVSS", "polyreactivity (PSR sort gate)": "low polyreactivity"}
{"sequence": "QVQLEETGGGLLQAGGSLRLSSAASGRTFVNYAMGWYRQAPGKEREFVAAIDRRSGSTYYADSVKGRFTISRDNAKNTVYLQMTSLKPEDTAVDYCAASPYIYDSWGQGTQVTVSS", "polyreactivity (PSR sort gate)": "low polyreactivity"}
{"sequence": "QVQLGDSGGGLVHAGGSLSLSCAASGSTFAYYSMGWYRQAPGKERELVAGFTWTGGSTYYADSVKGRFTISRDNAKNTVYFQKNSLKPEDTAVYFCAVTYPYGYEYDHWGQGSQVTVSS", "polyreactivity (PSR sort gate)": "low polyreactivity"}
{"sequence": "QVQLGDSGGGLVQAGGSLRLSCAASGFSIFTYAMGWYRQAPGKERELVAAITTGGSTNYADSVKGRFTISRDNAKNTVYLKMNSLKPEDTALYYCAALRVSVILLVRLDYWGQGTQVTVSS", "polyreactivity (PSR sort gate)": "low polyreactivity"}
{"sequence": "QVQLGDSGGGLVQAGGSLRLSCAASGRIFGVYAMGWYRQAPGKERELVAAISRNGGSTYYADSVKGRFTISRDNAKNTVYLQMNSLKPEDTAVYYCATGGGVEAAGAYWGQGTQVTVSS", "polyreactivity (PSR sort gate)": "low polyreactivity"}
{"sequence": "QVQLGESGAGLVQAGGSLRLSCAASGRTFYRYAMGWYRQAPGKERELVAAISSSGGRTYYADSVKGRFTISRDNAKNTVYLQMNSLKPEDTAVYYCAKSGYHSLVLWIEDYWGQGTQVTVSS", "polyreactivity (PSR sort gate)": "low polyreactivity"}
{"sequence": "QVQLGESGAGLVQAGGSLRLSCAASGRTLRKYAMGLYTQAPGKERELVAAITTSGGSKYYADSVKGRFTISRDNAKNTVYLPMNSLKPEDTAVYYCAKCGYSGYHSSYDYWGQGTQVTVSS", "polyreactivity (PSR sort gate)": "high polyreactivity"}
{"sequence": "QVQLGESGGGFFKAGASLRVICAASGRTFRRNAKGWYRQSPGTERELVAAITCGGSTNYADSVKGRFTISRDNENNTVYLQMNSLKPEDTAVYYCNADSVWGWYTYDYWGQGTQVTVSS", "polyreactivity (PSR sort gate)": "high polyreactivity"}
{"sequence": "QVQLGESGGGIVQAGGSLRLSCAASGFIIRYNAMGWYRQAPGKERQFVAAISWGGGRTYYADSVKGRFTISRDNAKNTVYLQMNSLKPEDTAVYFCAAVSPHNRYGYKYDYWGQGTQVTVSS", "polyreactivity (PSR sort gate)": "high polyreactivity"}
{"sequence": "QVQLGESGGGLVQAGGSLGLSCAASGGTLRVNTMGWYRQAPGKERELVAAISTRSGRTYYADSVKGRFTISRDNAKYTVYLQMNSLKPEDTAVYYCAATLYRRRSAFDGDWGQGTQVTVSS", "polyreactivity (PSR sort gate)": "high polyreactivity"}
{"sequence": "QVQLGESGGGLVQAGGSLRLICAASGSIFDVNAMGWYRQAPGKERELVAAISDSGGSTYYADSVKGRFTISRDNAKNTVYLQMNSLKPEDTAVYYCNADWSWYNYDDFDYWGQGTQVTVSS", "polyreactivity (PSR sort gate)": "low polyreactivity"}
{"sequence": "QVQLGESGGGLVQAGGSLRLICAASGSTFYYNAMGWSRQAPGKEWELVAAITYSGGDTYYADSVKGRFTMSRDNAKNTVYLQMNSLKPEDTAVYYCAAEYYWYNVYTGHLWYDYWGQGTQVTVSS", "polyreactivity (PSR sort gate)": "high polyreactivity"}
{"sequence": "QVQLGESGGGLVQAGGSLRLRCAASGYILWNAMGWYRQAPGKERELVAAIRFRGGSTSYADSVKGRFTISRDNAKNTVYLQMNSLKPEDTAVYYCNARWWVIRPYQRHDYWGQGTQVTVSS", "polyreactivity (PSR sort gate)": "low polyreactivity"}
{"sequence": "QVQLGESGGGLVQAGGSLRLSCAASGFIFCYYAMGWYRQAPVKERELVAAITSGGRTYYSESVKGRFTISLDNAKNTFYLQMNSMKPEDTSVYYCNVVLRSVVSGDYWGQGTQVTVSS", "polyreactivity (PSR sort gate)": "high polyreactivity"}
{"sequence": "QVQLGESGGGLVQAGGSLRLSCAASGFIFEHYARGWYRQAPGTDTEFVARISWGGGSTYYADSVKGRFTISRDNAKNTVYLQMNSLKPEDTAVYYCHALEGVYFGYYPSDYWGQGTQVTVAS", "polyreactivity (PSR sort gate)": "low polyreactivity"}
{"sequence": "QVQLGESGGGLVQAGGSLRLSCAASGFSFWYYPMGWYRQAPGKERELVASIRYSGDSTSYADSVKGRFTISRDNAKNNVYFQMNSLKAEDTEVYYSAAVRYWYASYYTYEYWGQGTQVSVSS", "polyreactivity (PSR sort gate)": "high polyreactivity"}
{"sequence": "QVQLGESGGGLVQAGGSLRLSCAASGFTFYGNAMGWYRQAPGKERELVAAITYSGGRTYYADSVKGRFTISRDNAKNTVYLQMNSLKPEDTAVYYCARRRGYGQYDYWGQGTQVTVSS", "polyreactivity (PSR sort gate)": "high polyreactivity"}
{"sequence": "QVQLGESGGGLVQAGGSLRLSCAASGFTFYNYAMGWYRQAPGKERELVAAISTSGGSTYYADSVKGRFTISRDNAKNTVYLQMNSLKPEDTAVYYCAAQATAYSYAYYYWGQGTQVTVSS", "polyreactivity (PSR sort gate)": "low polyreactivity"}
{"sequence": "QVQLGESGGGLVQAGGSLRLSCAASGIIFISYDMGWYRQAPWKERELVARINWDGGSTYYADSVKGRFTISRDNAKNTVYLQMNSLKPEDTAVYYCAAGFVGTNYPLQGFSYEYWGQGTQVTVSS", "polyreactivity (PSR sort gate)": "low polyreactivity"}
